Assays:
Y328F = biological target: T1, Y328F; experiment: flow cytometry, transduced primary NK cells
T1 construct: also called KIR2DL5 Y328F (ITSM mutant) on transduced primary NK cells
Procedure: (§1) The KIR2DL5⁻ primary NK cells were transduced with WT KIR2DL5 or the indicated mutants, and then examined for protein expression with F8B30 (open) or mIgG1 (shaded). NC, negative control. Data are representative of 2 independent experiments. (B and C) Transduced primary NK cells were treated with (+) or without (−) pervanadate (VO₄) for 5 minutes. Cell lysates were immunoprecipitated with anti-KIR2DL5 antibodies. Phospho-tyrosine (4G10), SHP-1, SHP-2, and total KIR2DL5 were detected by immunoblots (B). Quantification of p-Tyr, SHP-1, and SHP-2 association with WT or mutant KIR2DL5 in VO₄-treated NK cells (C). WCL, whole-cell lysates. (D) Representative imaging of cell conjugates acquired upon the indicated transduced primary NK and PVR/Raji cell contact followed by staining with anti-KIR2DL5 mAb and DAPI. Scale bars: […]. (E) Lysis of scramble control or PVR^KO A427 (top) and Jurkat (bottom) by WT or mutant KIR2DL5-transduced primary NK cells at the indicated E/T ratios. Data are mean for duplicate measurements and representative of 3 independent experiments with 3 different donors. In A, and B, data are representative of 3 independent experiments. *P<0.05, **P<0.01, ***P<0.001, ****P<0.0001, by 1-way ANOVA (C), or paired Student's t test (D).
(§2) Primary NK cell transduction. KIR2DL5 wild type and variants of ITIM/ITSM expressed on the surface of KIR2DL5⁻ primary NK cells were introduced by lentiviral transduction. Lentivirus was produced in HEK293T cells cotransfected with psPAX, pMD2.G, and a lentiviral backbone pSin vector (a gift from the Alec Zhang laboratory, Department of Physiology, University of Texas Southwestern Medical Center, Dallas, Texas, USA) containing the full-length gene sequence of KIR2DL5A*001 using jetPRIME reagents (Polyplus Transfection). Virus-containing supernatant was harvested 48-72 hours after transfection and filtered through a 0.45 µm filter. Non-tissue-culture-treated plates were coated with retronectin, and virus supernatant was then incubated on the surface of plates at 2,000 g for 120 minutes at 37° C. […]

Y298F/Y328F = biological target: T2, Y298F/Y328F; experiment: flow cytometry, transduced primary NK cells
T2 construct: also called KIR2DL5 Y298F/Y328F (ITIM and ITSM mutant) on transduced primary NK cells
Procedure: as §1, §2

Y298F = biological target: T3, Y298F; experiment: flow cytometry, transduced primary NK cells
T3 construct: also called KIR2DL5 Y298F (ITIM mutant) on transduced primary NK cells
Procedure: as §1, §2

[1] = biological target: T4, KIR2DL5A*005 allele expressed on 3T3 cells (human); experiment: flow cytometry, transduced 3T3 cells, mAb 5 µg/mL
T4 construct: also called 2D5A*005
Procedure: FIG. 8A-8D: Generation and characterization of anti-KIR2DL5-specific mAbs. (A) The specificity of anti-KIR2DL5 mAb clone F8B30. 3T3 cells transduced with indicated KIR family members were stained with 5 μg/mL of F8B30 (open) or mIgG1 (shaded). (B) 3T3 cells transduced with DO-deleted (KIR2DL5 dD0) or D2-deleted KIR2DL5 (KIR2DL5 dD2) were stained with 5 μg/mL of clone F8B30 or commercial clone UP-R1. (C) Anti-KIR2DL5 mAb clone F8B30 recognized different KIR2DL5A and 5B alleles. 3T3 cells transduced with indicated alleles were stained with 5 μg/mL of F8B30 or UP-R1 (open) or mIgG1 (shaded). (D) Anti-KIR2DL5 mAb clone F8B30 recognized different KIR2DL5 DO domain variants. 3T3 cells transduced with indicated DO variants were stained with 0.025 μg/mL of F8B30 or UP-R1 (open) or mIgG1 (shaded). In A-D, data are representative of 2 independent experiments.

T1 sequence (receptor chain, as listed by the source Y328F Y328F limits assumed): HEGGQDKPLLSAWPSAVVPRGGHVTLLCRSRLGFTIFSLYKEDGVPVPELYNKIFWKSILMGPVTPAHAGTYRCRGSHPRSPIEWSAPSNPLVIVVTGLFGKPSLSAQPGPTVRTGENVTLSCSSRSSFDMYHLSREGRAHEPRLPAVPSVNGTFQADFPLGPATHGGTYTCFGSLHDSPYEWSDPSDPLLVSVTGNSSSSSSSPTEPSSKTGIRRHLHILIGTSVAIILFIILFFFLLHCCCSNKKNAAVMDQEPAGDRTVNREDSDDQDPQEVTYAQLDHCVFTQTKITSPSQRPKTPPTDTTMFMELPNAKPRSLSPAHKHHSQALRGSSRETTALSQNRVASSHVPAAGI
T3 sequence (receptor chain, as listed by the source Y298F Y298F limits assumed): as the sequence (receptor chain, as listed by the source Y328F Y328F limits assumed) above, with Y277F, F307Y counted along it
T4 sequence (chain, as listed by the source): as the sequence (receptor chain, as listed by the source Y328F Y328F limits assumed) above, with N152D, G174S, F307Y counted along it
T2 sequence (receptor chain, as listed by the source Y298F Y328F Y298F Y328F limits assumed): as the sequence (receptor chain, as listed by the source Y328F Y328F limits assumed) above, with Y277F counted along it

- binding result (Y328F): binds
- binding result (Y298F/Y328F): binds
- binding result (Y298F): binds
- binding result [1]: binds
B1: anti-KIR2DL5 mAb clone F8B30 (antibody, V domains shown)
VH: QIQLVQSGPELKKPGETVKISCKASGYTFTDYSMHWVKQAPGKGLKWMGWINTETGGPTYADDFKGRFAFSLETSATTAYLQINNLKNEDTATYFCSRDVDLYFDYWGQGTTLTVS
VL: DIQMTQSPASLSASVGETVTITCRTSENIYSYLAWYQQKQGKSPQLLVYNAKTLVEGVPSRFSGSGSGTQFSVKINSLQPEDFGNYYCQHHYGIPFTFGGGTKLEIK
notes: also called F8B30 (IgG1, κ)

— patent US20250019435A1 (ALBERT EINSTEIN COLLEGE OF MEDICINE, published 2025)
